Reference: publication PMC4615246
Like-named read-outs stand apart in the source and are kept apart here. Blank lines part the entries; values can stand above or below the substance they belong to.

How the values were obtained:
Test in all cases: LacI/LacO array recruitment in cells
LacI-CFP-sPom121 (human) [1] = target: LacI-CFP-sPom121 (human) (UniProt Q96HA1)
LacI-CFP-Nup98 (human) = LacI-CFP-Nup98 (human) (UniProt P52948)
LacI-CFP-mNup85 (mouse) = LacI-CFP-mNup85 (mouse) (UniProt Q8R480)
LacI-CFP-Nup53 (human) = LacI-CFP-Nup53 (human) (UniProt Q8NFH5)
LacI-CFP-Nup50 (human) = LacI-CFP-Nup50 (human) (UniProt Q9UKX7)
LacI-CFP-Nup153 (human) = LacI-CFP-Nup153 (human) (UniProt P49790)
LacI-CFP-Nup58 (human) = LacI-CFP-Nup58 (human) (UniProt Q9BVL2)
LacI-CFP-Nup214 (human) [2] = target: LacI-CFP-Nup214 (human) (UniProt P35658)
LacI-CFP-Nup133 (human) = LacI-CFP-Nup133 (human) (UniProt Q8WUM0)
LacI-CFP-Nup107 (human) = LacI-CFP-Nup107 (human) (UniProt P57740)
LacI-CFP-Nup214 (human) [3] = target: LacI-CFP-Nup214 (human) (UniProt P35658); remark: listed apart in the source
LacI-CFP-sPom121 (human) [4] = target: LacI-CFP-sPom121 (human) (UniProt Q96HA1); remark: listed apart in the source

Chain of LacI-CFP-sPom121 (human) (Q96HA1 whole entry): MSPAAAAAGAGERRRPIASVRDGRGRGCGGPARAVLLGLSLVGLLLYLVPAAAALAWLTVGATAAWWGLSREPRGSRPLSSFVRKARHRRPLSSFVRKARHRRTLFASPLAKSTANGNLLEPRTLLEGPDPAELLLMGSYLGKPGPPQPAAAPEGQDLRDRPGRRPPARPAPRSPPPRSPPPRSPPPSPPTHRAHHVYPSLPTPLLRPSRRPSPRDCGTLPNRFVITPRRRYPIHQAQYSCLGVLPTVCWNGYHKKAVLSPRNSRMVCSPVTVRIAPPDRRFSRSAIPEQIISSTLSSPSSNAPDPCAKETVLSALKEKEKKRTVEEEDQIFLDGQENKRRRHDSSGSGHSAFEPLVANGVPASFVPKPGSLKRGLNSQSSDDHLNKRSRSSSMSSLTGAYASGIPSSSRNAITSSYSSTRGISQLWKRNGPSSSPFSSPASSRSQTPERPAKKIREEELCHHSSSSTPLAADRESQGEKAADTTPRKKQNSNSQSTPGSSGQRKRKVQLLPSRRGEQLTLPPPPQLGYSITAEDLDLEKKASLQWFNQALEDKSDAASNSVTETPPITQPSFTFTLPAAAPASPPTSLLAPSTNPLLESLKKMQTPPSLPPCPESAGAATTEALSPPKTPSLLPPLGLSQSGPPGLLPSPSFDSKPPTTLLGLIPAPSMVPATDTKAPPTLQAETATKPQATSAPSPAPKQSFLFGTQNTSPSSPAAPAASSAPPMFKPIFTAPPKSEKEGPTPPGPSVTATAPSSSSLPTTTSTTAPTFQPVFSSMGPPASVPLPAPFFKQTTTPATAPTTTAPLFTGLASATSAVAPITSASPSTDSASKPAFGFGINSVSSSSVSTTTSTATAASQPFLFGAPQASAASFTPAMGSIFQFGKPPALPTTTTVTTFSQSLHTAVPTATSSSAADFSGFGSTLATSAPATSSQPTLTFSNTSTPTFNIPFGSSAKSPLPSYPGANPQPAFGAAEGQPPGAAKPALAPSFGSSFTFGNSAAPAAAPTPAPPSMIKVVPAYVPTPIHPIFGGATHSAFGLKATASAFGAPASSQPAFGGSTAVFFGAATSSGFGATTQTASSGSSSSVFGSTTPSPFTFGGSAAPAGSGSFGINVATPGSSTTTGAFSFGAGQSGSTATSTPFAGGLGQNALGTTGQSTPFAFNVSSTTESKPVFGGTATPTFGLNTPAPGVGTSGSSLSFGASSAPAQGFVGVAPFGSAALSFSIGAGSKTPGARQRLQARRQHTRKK
Chain of LacI-CFP-Nup214 (human) (P35658 whole entry): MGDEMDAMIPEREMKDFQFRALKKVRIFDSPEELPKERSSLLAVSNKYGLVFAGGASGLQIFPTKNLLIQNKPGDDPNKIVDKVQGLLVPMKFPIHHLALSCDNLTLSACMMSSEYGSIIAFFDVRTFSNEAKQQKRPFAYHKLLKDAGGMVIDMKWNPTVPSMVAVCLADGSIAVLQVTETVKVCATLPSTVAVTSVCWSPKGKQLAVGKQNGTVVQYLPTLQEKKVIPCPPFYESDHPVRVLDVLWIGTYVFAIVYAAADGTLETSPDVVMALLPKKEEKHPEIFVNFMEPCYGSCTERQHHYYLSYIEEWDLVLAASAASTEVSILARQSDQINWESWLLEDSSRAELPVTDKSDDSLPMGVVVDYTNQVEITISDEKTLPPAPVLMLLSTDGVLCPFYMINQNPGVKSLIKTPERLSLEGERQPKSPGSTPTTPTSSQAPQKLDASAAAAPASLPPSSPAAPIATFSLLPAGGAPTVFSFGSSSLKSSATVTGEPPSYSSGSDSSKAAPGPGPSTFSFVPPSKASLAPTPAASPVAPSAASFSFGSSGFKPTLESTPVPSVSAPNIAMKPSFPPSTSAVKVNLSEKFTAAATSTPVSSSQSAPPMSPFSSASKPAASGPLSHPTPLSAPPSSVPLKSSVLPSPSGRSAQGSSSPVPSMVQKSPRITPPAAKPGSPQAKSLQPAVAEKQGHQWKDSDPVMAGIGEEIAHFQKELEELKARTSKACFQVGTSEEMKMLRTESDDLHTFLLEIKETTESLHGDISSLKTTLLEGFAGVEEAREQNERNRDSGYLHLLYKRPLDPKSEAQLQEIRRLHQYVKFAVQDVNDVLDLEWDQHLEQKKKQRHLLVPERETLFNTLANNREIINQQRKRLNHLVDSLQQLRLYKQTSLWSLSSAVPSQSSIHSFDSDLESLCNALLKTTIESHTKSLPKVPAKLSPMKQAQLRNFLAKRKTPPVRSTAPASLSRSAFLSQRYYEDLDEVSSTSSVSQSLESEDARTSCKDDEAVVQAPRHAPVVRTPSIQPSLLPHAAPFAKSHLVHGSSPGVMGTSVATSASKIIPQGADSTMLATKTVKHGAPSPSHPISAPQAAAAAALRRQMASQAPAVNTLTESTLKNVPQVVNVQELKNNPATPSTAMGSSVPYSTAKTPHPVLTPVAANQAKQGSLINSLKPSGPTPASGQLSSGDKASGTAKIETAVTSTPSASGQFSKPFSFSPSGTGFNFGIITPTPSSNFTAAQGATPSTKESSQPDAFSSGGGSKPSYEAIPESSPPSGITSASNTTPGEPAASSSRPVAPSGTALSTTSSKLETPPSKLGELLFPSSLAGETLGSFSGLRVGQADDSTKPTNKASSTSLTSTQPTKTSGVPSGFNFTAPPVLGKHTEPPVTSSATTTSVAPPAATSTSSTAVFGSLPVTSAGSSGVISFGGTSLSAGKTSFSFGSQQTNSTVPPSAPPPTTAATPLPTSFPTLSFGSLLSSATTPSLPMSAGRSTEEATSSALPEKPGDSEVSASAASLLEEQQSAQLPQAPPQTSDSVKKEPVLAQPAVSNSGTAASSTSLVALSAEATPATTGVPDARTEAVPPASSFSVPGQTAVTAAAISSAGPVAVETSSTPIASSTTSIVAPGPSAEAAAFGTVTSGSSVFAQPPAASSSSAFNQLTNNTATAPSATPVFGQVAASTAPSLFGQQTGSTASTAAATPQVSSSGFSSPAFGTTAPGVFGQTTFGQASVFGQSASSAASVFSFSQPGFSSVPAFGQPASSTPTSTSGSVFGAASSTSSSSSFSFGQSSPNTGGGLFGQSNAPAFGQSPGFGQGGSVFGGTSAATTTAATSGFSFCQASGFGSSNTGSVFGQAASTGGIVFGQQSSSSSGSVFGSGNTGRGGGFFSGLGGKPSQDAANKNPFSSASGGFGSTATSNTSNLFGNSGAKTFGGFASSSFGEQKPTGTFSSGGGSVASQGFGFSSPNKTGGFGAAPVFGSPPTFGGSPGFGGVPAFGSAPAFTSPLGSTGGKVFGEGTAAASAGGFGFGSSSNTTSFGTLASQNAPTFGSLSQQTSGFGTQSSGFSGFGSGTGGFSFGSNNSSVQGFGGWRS
Chain of LacI-CFP-Nup153 (human) (P49790 whole entry): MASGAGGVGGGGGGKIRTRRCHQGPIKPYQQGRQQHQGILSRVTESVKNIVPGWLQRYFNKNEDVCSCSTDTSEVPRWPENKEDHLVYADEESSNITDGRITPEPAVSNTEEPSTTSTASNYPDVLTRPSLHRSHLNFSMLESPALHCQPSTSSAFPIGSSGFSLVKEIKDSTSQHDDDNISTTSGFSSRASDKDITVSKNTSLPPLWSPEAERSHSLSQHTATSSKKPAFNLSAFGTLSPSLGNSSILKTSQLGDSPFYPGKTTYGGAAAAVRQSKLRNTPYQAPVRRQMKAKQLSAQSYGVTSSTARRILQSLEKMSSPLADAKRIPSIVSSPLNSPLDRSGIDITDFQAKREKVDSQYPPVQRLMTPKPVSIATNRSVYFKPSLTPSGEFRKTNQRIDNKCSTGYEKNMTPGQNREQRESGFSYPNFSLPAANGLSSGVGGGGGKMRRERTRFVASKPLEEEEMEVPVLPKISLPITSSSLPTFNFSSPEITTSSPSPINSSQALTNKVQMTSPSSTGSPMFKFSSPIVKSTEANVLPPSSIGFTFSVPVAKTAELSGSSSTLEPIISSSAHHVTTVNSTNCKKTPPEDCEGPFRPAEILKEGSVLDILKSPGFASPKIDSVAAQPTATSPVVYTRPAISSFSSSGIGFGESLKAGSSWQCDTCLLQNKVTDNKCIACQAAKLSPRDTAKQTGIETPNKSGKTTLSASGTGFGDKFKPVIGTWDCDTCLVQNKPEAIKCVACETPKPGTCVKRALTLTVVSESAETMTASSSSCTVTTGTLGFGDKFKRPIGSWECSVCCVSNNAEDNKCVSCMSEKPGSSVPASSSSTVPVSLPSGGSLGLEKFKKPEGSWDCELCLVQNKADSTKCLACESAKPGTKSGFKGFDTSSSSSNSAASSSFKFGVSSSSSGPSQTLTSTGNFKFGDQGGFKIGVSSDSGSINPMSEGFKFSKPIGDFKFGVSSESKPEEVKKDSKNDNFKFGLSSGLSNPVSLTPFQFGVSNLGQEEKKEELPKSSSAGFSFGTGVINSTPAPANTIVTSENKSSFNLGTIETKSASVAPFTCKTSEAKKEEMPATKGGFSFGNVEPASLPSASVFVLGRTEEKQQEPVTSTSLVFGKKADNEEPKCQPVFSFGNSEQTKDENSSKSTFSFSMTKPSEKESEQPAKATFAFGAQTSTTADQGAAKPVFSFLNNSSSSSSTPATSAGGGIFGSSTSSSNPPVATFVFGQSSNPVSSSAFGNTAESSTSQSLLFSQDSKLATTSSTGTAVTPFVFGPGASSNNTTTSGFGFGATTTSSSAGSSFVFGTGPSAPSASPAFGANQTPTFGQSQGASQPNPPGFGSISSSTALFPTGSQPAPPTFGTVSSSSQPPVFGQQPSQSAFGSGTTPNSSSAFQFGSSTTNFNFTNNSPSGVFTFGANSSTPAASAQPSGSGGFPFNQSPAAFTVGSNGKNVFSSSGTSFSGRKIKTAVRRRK
Chain of LacI-CFP-Nup53 (human) (Q8NFH5 whole entry): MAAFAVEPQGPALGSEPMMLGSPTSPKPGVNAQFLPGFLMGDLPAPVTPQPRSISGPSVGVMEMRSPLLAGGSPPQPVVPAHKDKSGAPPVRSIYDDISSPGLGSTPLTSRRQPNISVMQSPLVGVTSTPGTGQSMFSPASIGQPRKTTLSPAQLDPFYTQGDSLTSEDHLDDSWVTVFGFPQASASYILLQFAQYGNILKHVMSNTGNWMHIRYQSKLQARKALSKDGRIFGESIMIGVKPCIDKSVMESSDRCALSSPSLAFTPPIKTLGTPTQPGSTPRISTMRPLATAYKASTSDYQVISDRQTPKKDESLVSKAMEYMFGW

- percent of transfected cells showing colocalization (LacI-CFP-Nup98 (human)): 16%
- percent of transfected cells showing colocalization (LacI-CFP-mNup85 (mouse)): 9%
- percent of transfected cells showing colocalization (LacI-CFP-Nup53 (human)): 34%
- percent of transfected cells showing colocalization (LacI-CFP-Nup50 (human)): 37%
- percent of transfected cells showing colocalization (LacI-CFP-Nup153 (human)): 65%
- percent of transfected cells showing colocalization (LacI-CFP-Nup58 (human)): 13%
- percent of transfected cells showing colocalization (LacI-CFP-Nup214 (human) [2]): 40%
- percent of transfected cells showing colocalization (LacI-CFP-Nup133 (human)): 62%
- percent of transfected cells showing colocalization (LacI-CFP-Nup107 (human)): 72%
- percent of transfected cells showing colocalization (LacI-CFP-Nup214 (human) [3]): 45%
Substance: ELYS (endogenous), Q8WYP5 1-2266

- percent of transfected cells showing colocalization (LacI-CFP-sPom121 (human) [1]): 68%
- percent of transfected cells showing colocalization (LacI-CFP-sPom121 (human) [4]): 71%
Substance: Nup93 (endogenous) (from UniProt Q8N1F7 1-819) (natural protein)

- percent of transfected cells showing colocalization (LacI-CFP-sPom121 (human) [1]): 72%
- percent of transfected cells showing colocalization (LacI-CFP-sPom121 (human) [4]): 74%
Substance: Nup98 (endogenous) (from UniProt P52948 1-880) (natural protein)

- percent of transfected cells showing colocalization (LacI-CFP-Nup133 (human)): 23%
Substance: Nup214 (endogenous), P35658 1-2090 (natural protein)

Continued, substance first:

Substance: ELYS (endogenous) (from UniProt Q8WYP5 1-2266) (natural protein)
- percent of transfected cells showing colocalization (LacI-CFP-sPom121 (human) [1]): 14%

Substance: Nup53 (endogenous) (from UniProt Q8NFH5 1-326) (natural protein)
- percent of transfected cells showing colocalization (LacI-CFP-sPom121 (human) [1]): 2%

Substance: Nup62 (endogenous) (from UniProt P37198 1-522) (natural protein)
- percent of transfected cells showing colocalization (LacI-CFP-sPom121 (human) [1]): 89%

Substance: Nup85 (endogenous) (from UniProt Q9BW27 1-656) (natural protein)
- percent of transfected cells showing colocalization (LacI-CFP-sPom121 (human) [1]): 7%

Substance: Nup133 (endogenous) (from UniProt Q8WUM0 1-1156) (natural protein)
- percent of transfected cells showing colocalization (LacI-CFP-sPom121 (human) [1]): 8%

Substance: Nup214 (endogenous), P35658 1-2090 (natural protein; other documents disagree on this pair)
- percent of transfected cells showing colocalization (LacI-CFP-Nup153 (human)): 6%
